Test results taken from patent US20170088605A1 (Novartis, published 2017).
Residue numbers refer to the chain shown, from its start. Read-outs that look alike come from different tables or passages of the source.

T1: BKV serotype I infectious virus (VP1) (BK virus serotype I, UniProt P03088 1-362)
T1 sequence (looked up): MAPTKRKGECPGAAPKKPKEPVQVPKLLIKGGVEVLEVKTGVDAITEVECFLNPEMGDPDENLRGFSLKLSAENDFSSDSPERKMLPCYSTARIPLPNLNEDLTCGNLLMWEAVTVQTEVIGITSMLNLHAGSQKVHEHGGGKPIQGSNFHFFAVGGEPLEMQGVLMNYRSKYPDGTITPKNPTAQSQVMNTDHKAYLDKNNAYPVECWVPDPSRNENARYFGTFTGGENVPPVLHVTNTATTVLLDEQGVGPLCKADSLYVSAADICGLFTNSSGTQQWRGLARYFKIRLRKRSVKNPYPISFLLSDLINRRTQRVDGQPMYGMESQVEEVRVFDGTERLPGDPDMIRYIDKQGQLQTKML

T2: BKV serotype I VLP (BK virus serotype I, UniProt P03088 1-362)
T2 chain: T1 sequence (looked up) with E158D, S171T, D175E, V210I, A219T

B1: 2081-36-8 (antibody, V domains shown)
VH: QVQLQQSGAGLVRPGSSVKISCKTSGYAFSSYWMNWVKQRPGQGLEWIGQIYPGNGDTNYNGKFKGKATLTADKSSNTAYIQLNSLTSEDSAVYFCAREARQGYHYAMDYWGQGTSVTVSL
VL: EIVFTQSPTTMAAFPGEKITITCSASSMINSNYLHWYQQKPGFSPKVLIYRTSNLASGVPARFSGTGSGTSFSLTIGTMEAEDVATYYCQQGSNIFTFGSGTKLEIK
B2: EBB-C1975-A7 (antibody, V domains shown)
VH: QVQLVESGGGLVQPGGSLRLSCAASGFTVSRNYMSWVRQAPGKGLEWVSGIYSGGSTYYADSVKGRFTISRDYSKNTLSLQMNTLRVEDTAVYFCAREDEFWSGYSAGVDWGQGTLVTVSS
VL: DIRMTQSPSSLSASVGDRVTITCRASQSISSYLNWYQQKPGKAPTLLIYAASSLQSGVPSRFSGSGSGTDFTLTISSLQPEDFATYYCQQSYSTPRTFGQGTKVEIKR

Columns and labels:
[1] = target: T1, BKV serotype I infectious virus (VP1); test: cell-based or functional assay
[2] = target: T2, BKV serotype I VLP
[3] = target: T3, BKV serotype I VP1 pentamer (BK virus serotype I, UniProt P03088 30-297); test: SPR, antibody captured on Protein A
T3 construct: also called serotype I pentamers; BKV-VP1 serotype I pentameric protein

[4] = target: T1, BKV serotype I infectious virus (VP1); test: cell-based or functional assay; remark: listed apart in the source
[5] = target: BKV serotype II chimeric infectious virus (VP1 of isolate SB) (BK virus serotype II); test: cell-based or functional assay
[6] = target: BKV serotype III chimeric infectious virus (VP1 of isolate AS) (BK virus serotype III); test: cell-based or functional assay
[7] = target: BKV serotype IV chimeric infectious virus (VP1 of strain ITA-4) (BK virus serotype IV); test: cell-based or functional assay

| Binder | neutralization EC50 [1] [µg/mL] | neutralization EC90 [1] [µg/mL] | EC50 (read off the curve) [2] [pM] | binding result [3] | neutralization EC50 [4] [µg/mL] | neutralization EC90 [4] [µg/mL] | neutralization EC50 [5] [µg/mL] | neutralization EC90 [5] [µg/mL] | neutralization EC50 [6] [µg/mL] | neutralization EC90 [6] [µg/mL] | neutralization EC50 [7] [µg/mL] | neutralization EC90 [7] [µg/mL] |
| --- | --- | --- | --- | --- | --- | --- | --- | --- | --- | --- | --- | --- |
| B1 | 0.147 | 0.909 | ~300 |  |  |  |  |  |  |  |  |  |
| B2 |  |  |  | no binding | 0.024 | 5.15 | 0.11 | 14.2 | > 100 | > 100 | 0.28 | 7.79 |
